Laboratory results reported in patent US9308238B2, “Compositions and methods for modulating EMT and uses thereof” (Whitehead Institute for Biomedical Research, priority 2010, dated 2016).

Experiments:
[1] = tested on: MSP-RAS cells; assay: Tumorsphere assay, MSP-RAS cells; format: cell-based, human; settings: for reduction of primary tumorsphere formation: SFRP1 1 μg/ml, BMP4 0.5 μg/ml daily during primary sphere formation; for reduction of secondary tumorsphere formation: treated during primary sphere formation only
Procedure: FIGS. 4A-4G. Autocrine Signaling controls tumorigenicity and metastasis of MSP-RAS cells. (FIG. 4A) Migration assay: RAS-transformed MSP (MSP-RAS) were seeded in Boyden Chamber migration assays and recombinant SFRP1 (1 μg/ml) and BMP4 protein (0.5 μg/ml) were added; *control vs. single treatment, p<1×10^−8, **single vs. double treatment with SFRP1 and BMP4 (S+B), p<1×10^−4, n=3. (FIG. 4B) Tumorsphere assay: SFRP1 (1 μg/ml) and BMP4 protein (0.5 μg/ml) were added daily during primary sphere formation (5 days), spheres were dispersed and seeded for secondary sphere formation in the absence of further treatment; #control primary vs. secondary sphere formation, p=0.001; *control vs. single treatment, p<1×10^−4, **single vs. double treatment with SFRP1 and BMP4 (S+B), p<0.01, n(tumorspheres)/1000 cells, n=6. (FIG. 4C) Flow cytometry: CD44 and CD24 cell-surface markers of dissociated primary tumorspheres as described in (B). (FIG. 4D) Orthotopic tumor formation after ex vivo treatment during tumorsphere formation: primary tumorspheres as generated in (B) were pooled, dissociated and 1.0×10^5 cells were implanted in the fat pads of mice; shown are tumor weight and incidence, *indicates absence of tumor, n=5 mice/group. (FIG. 4E) Lung metastasis: fluorescence microscopy images of the major left lung lobe showing GFP-expressing metastatic nodules and quantification of the number of lung surface metastases; *control vs. SFRP1 treatment, p<0.05, **SFRP1 vs. BMP4 or double treatment (S+B), p<0.05, n=5 mice/group. (FIG. 4F) Liver metastasis: fluorescence microscopy images of the liver surface showing GFP-expressing micro-metastatic nodules after implantation of cells as described in (D) and quantification: 5 fields of liver surface were counted per mouse, *control vs. single treatment, p<0.05, **single vs. double treatment (S+B), p<0.05, n=5 mice/group. (FIG. 4G) Tumorigenicity assay: MSP-RAS cells suspended in PBS containing SFRP1 (1 μg/ml), BMP4 (0.5 μg/ml), and a combination of both (S+B) were implanted subcutaneously in mice at indicated cell numbers. In addition, 20 μl of PBS or PBS with proteins at indicated doses was injected peri-tumorally at 1, 2, 3 and 7 days after implanting the MSP-RAS cells.
Mammosphere and tumorsphere assay. Assays were performed as previously described with modifications (Dontu et al., 2003): 1000 cells/well were seeded in 96-well ultra-low adhesion plates (Corning) in MEGM medium containing 1.3% methylcellulose (Stem Cell Technologies) supplemented with 20 ng/ml EGF, 10 ng/ml bFGF (both Sigma) and B27 (Gibco). Primary spheres were dissociated by trypsinization and replated for secondary sphere formation after a period of 5-7 days.

[2] = tested on: HMLE-iEMT-a cells; assay: Mammosphere assay, iEMT-cells; format: cell-based, human; settings: SFRP1 1 μg/ml/d, BMP4 0.5 μg/ml/d; extent comparable to HTwist and MSP cells
Procedure: FIGS. 5A-5H. Concomitant stimulation of Wnt and TGF-beta pathways allows HMLE^24+ cells to enter into a mesenchymal and SC-like state. (FIG. 5A) RT-PCR: N-Cadherin, Zeb1 and Zeb2, L32 was loading control, n=3. Prior RNA isolation, HMLE^24+-shGFP or -shSFRP1 (stable knockdown of SFRP1, FIG. 12A) cells were treated for 3 days with daily doses of indicated factors: anti-DKK1 antibody (10 μg/ml), anti-E-Cadherin antibody (1 μg/ml), TGF-beta 1 (5 ng/ml), Wnt5a (250 ng/ml), (FIG. 5B) Brightfield microscopy: images of control, TGF-beta- and iEMT-cocktail treated HMLE^24+ cells after 14 days of treatment as indicated (see also FIG. 12D). (FIG. 5C) RT-PCR: Zeb1, Zeb2, E-Cadherin and N-Cadherin, L32 was loading control, n=3. After 14 day treatment, cells were expanded in absence of further stimulation for 4 passages. Shown are PBS-treated control HMLE^24+-shGFP and HMLE^24+-shSFRP1 cells, two HMLE^24+-shGFP cultures treated with TGF-beta 1 (TGF-β-a and -b), two HMLE^24+-shSFRP1 cultures treated with the iEMT-cocktail (iEMT-a and -b). […] (FIG. 5G) Lung metastasis: cells expanded for 8 passages after cessation of treatment as described in (C) were transformed with RAS; 1.0×10^5 cells were injected into the mammary fat pads of mice; GFP-labeled metastases on the surface of the lungs were quantified; *control vs. all other groups, p<0.05, n=5 mice/group. […]

[3] = tested on: MSP-RAS cells; assay: Subcutaneous tumorigenicity assay with proteins co-implanted and injected peri-tumorally; format: in vivo, mice; settings: subcutaneous limiting dilutions with protein; peri-tumoral injection at 1, 2, 3 and 7 days
Procedure: FIGS. 4A-4G. Autocrine Signaling controls tumorigenicity and metastasis of MSP-RAS cells. (FIG. 4A) Migration assay: RAS-transformed MSP (MSP-RAS) were seeded in Boyden Chamber migration assays and recombinant SFRP1 (1 μg/ml) and BMP4 protein (0.5 μg/ml) were added; *control vs. single treatment, p<1×10^−8, **single vs. double treatment with SFRP1 and BMP4 (S+B), p<1×10^−4, n=3. […] (FIG. 4E) Lung metastasis: fluorescence microscopy images of the major left lung lobe showing GFP-expressing metastatic nodules and quantification of the number of lung surface metastases; *control vs. SFRP1 treatment, p<0.05, **SFRP1 vs. BMP4 or double treatment (S+B), p<0.05, n=5 mice/group. (FIG. 4F) Liver metastasis: fluorescence microscopy images of the liver surface showing GFP-expressing micro-metastatic nodules after implantation of cells as described in (D) and quantification: 5 fields of liver surface were counted per mouse, *control vs. single treatment, p<0.05, **single vs. double treatment (S+B), p<0.05, n=5 mice/group. […]
Animal studies. […] Lung surface metastases were counted using a fluorescent microscope within 3 hr of specimen isolation.

B1: SFRP1: Recombinant human SFRP1 protein (R&D Systems), secreted decoy receptor binding canonical and non-canonical Wnt ligands (protein, UniProt Q8N474 32-314, looked up)
Secreted frizzled-related …: SEYDYVSFQSDIGPYQSGRFYTKPPQCVDIPADLRLCHNVGYKKMVLPNLLEHETMAEVKQQASSWVPLLNKNCHAGTQVFLCSLFAPVCLDRPIYPCRWLCEAVRDSCEPVMQFFGFYWPEMLKCDKFPEGDVCIAMTPPNATEASKPQGTTVCPPCDNELKSEAIIEHLCASEFALRMKIKEVKKENGDKKIVPKKKKPLKLGPIKKKDLKKLVLYLKNGADCPCHQLDNLSHHFLIMGRKVKSQYLLTAIHKWDKKNKEFKNFMKKMKNHECPTFQSVFK
reduction of primary tumorsphere formation [1]: 40% | reduction of secondary tumorsphere formation [1]: 40% | effect on mammosphere formation of iEMT-cells [2]: inhibited | reduction of tumor incidence [3]: at least one order of magnitude

B2: BMP4: Recombinant BMP4 protein obtained from Stemgent (protein, UniProt P12644 293-408, looked up)
Bone morphogenetic protein 4: SPKHHSQRARKKNKNCRRHSLYVDFSDVGWNDWIVAPPGYQAFYCHGDCPFPLADHLNSTNHAIVQTLVNSVNSSIPKACCVPTELSAISMLYLDEYDKVVLKNYQEMVVEGCGCR
reduction of primary tumorsphere formation [1]: 40% | reduction of secondary tumorsphere formation [1]: 40% | effect on mammosphere formation of iEMT-cells [2]: inhibited | reduction of tumor incidence [3]: at least one order of magnitude
